{"source": "paper PMC8012715", "about": "(Nature Communications, 2021)", "key": {"[1]": {"target": "the molecule itself", "assay": "AUC; multiwavelength sedimentation velocity (220-300 nm) of protein titrated against (GGTATA)3-repeat DNA, 50 mM sodium phosphate pH 7.4, 150 mM NaCl, 20 °C; oligomer told from the molar ratio of protein to DNA in co-migrating peaks"}, "[2]": {"target": "the molecule itself", "assay": "AUC; sedimentation velocity, absorbance at 280 nm, NanR alone at 3.3, 10 and 30 uM in 20 mM Tris-HCl pH 8.0, 150 mM NaCl, 20 °C, 50,000 rpm"}}, "data": [{"protein": "truncated NanR construct NanR^33–263 (domain or fragment, E. coli K12, UniProt P0A8W0 33-263, looked up, amplified from nanR and cloned into pET28a; No tag is named) SEMVEEELEQMIRRREFGEGEQLPSERELMAFFNVGRPSVREALAALKRKGLVQINNGERARVSRPSADTIIGELSGMAKDFLSHPGGIAHFEQLRLFFESSLVRYAAEHATDEQIDLLAKALEINSQSLDNNAAFIRSDVDFHRVLAEIPGNPIFMAIHVALLDWLIAARPTVTDQALHEHNNVSYQQHIAIVDAIRRHDPDEADRALQSHLNSVSATWHAFGQTTNKKK", "values": [{"measurement": "binding result", "setting": "[1]", "value": "binds"}]}, {"protein": "Escherichia coli Nan repressor (NanR) (natural protein, E. coli K12, UniProt P0A8W0 1-263, looked up, NanR, GntR-type transcriptional repressor of E. coli K12; the synthesised nanR gene in pET28a; the dimer mass used (59 kDa) fits an untagged chain; Expressed with 100 uM ZnCl2; carries Zn2+; For the crystals the protein was treated in situ with chymotrypsin, and the cut limits are not known; also called wild-type NanR; E. coli NanR) MGLMNAFDSQTEDSSPAIGRNLRSRPLARKKLSEMVEEELEQMIRRREFGEGEQLPSERELMAFFNVGRPSVREALAALKRKGLVQINNGERARVSRPSADTIIGELSGMAKDFLSHPGGIAHFEQLRLFFESSLVRYAAEHATDEQIDLLAKALEINSQSLDNNAAFIRSDVDFHRVLAEIPGNPIFMAIHVALLDWLIAARPTVTDQALHEHNNVSYQQHIAIVDAIRRHDPDEADRALQSHLNSVSATWHAFGQTTNKKK", "values": [{"measurement": "stoichiometry N", "setting": "[2]", "value": 2}]}]}
